Measurements as given in patent US9981005B2, “Methods for increasing DISC1 in a subject with schizophrenia or bipolar disorder by an antagonist inhibiting DISC1 binding to FBXW7” (The University Court of the University of Glasgow, priority 2013, dated 2018).
Entries after “also recorded” stand apart in the source; their conditions may differ. Where a SMILES comes first, the peptide text is derived from it. Where no end group is shown, it is not given here. [ ]: non-standard residue; d: D form. The star is where a group is joined. pT = C[C@@H](OP(=O)(O)O)[C@H](N)C(=O)O; NMeE = CN[C@@H](CCC(=O)O)C(=O)O; pS = N[C@@H](COP(=O)(O)O)C(=O)O; NMeD = CN[C@@H](CC(=O)O)C(=O)O; Cbz = O=C(OCc1ccccc1)*

Each compound was assayed on DISC1 expression in HEK293 cells (assay: DISC1 expression in HEK293 cells treated with cell-permeable peptides, quantitative Western blotting). Conditions: cell-permeable (N-terminal stearate) peptides at 100 μM, 0, 1, 2, 3 and 6 hours, FIG. 9.
Format: cell-based, human
Procedure: Peptides modified at the N-terminal amino group with stearate moieties to render them cell permeable (Severn Biotech Ltd) were dissolved in sterile DMSO at a stock concentration of 100 mM.
HEK293 cells were seeded into 6 well plates and cultured until 70-80% confluent. Cell permeable peptides 139 and 142 were added at 100 μM. Cells were incubated at 37° C./5% C02. Cells were taken at 0, 1, 2, 3 and 6 hours post peptide addition. After treatment cells were washed briefly with ice cold PBS and lysed on ice using 3T3 lysis buffer (20 mM Hepes (pH 7.4), 50 mM NaCl, 50 mM NaF, 10% (v/v) glycerol, 1% (w/v) Triton X-100, 10 mM EGTA, 30 mM sodium pyrophosphate) containing protease and phosphatase inhibitors. Protein concentrations were assessed using Bradford assay. Cell lysates were separated by SDS-PAGE and levels of DISC1 expression determined by quantitative Western blotting using the Licor Odyssey imaging system. GAPDH was used as a control to confirm equal loading.
In a similar experiment, HEK293 were seeded into 6 well plates and cultured until 70-80% confluent. Cell-permeable peptides 139 and 142 were added over a concentration range: 10 μM, 30 μM, 50 μM, 100 μM in duplicate. Cells were incubated at 37° C./5% C02 for 3 hours. […] After treatment cells were washed briefly with ice cold PBS and lysed on ice as described above.
(§1) Lysates were boiled in Laemmli buffer for 2 minutes prior to SDS-PAGE. Lysates were loaded on to a precast 4-12% bis-tris gel (˜10 μg/well). Gels were resolved at 150V (constant) for 90 mins. Proteins were transferred to nitrocellulose membrane at 30V for 1 hour. Membranes were blocked in 5% Milk in 1×TBS-tween20 for 1 hour at room temperature. Primary antibodies were diluted in 1% milk in 1×TBS-tween20 and incubated overnight at 4° C. […] Protein bands were visulised using the Licor Odyssey scanner and analysed using Odyssey software (version 1.2). DISC-1 protein levels were analysed by densitometry and normalised against those of the loading control (GAPDH).
“G-mD-P-P-G-mE-H (G[NMeD]PPG[NMeE]H) [Peptide 142]” was tested, and the “DISC1 up-regulation, time course” value was “Up-Regulate DISC1 Expression”.
For “G-mE-P-P-G-mE-H (G[NMeE]PPG[NMeE]H) [Peptide 139]”, the “DISC1 up-regulation, time course” value was “Up-Regulate DISC1 Expression”.

Same assay, conditions: cell-permeable peptides at 10 μM, 30 μM, 50 μM, 100 μM, 3 hours, FIG. 10
In the case of “G-mE-P-P-G-mE-H (G[NMeE]PPG[NMeE]H) [Peptide 139]”, the “DISC1 up-regulation, dose dependence” value is reported as “dose-dependent”.

These compounds were tested on DISC1 levels in HEK293 cells (assay: MG132 treatment of HEK293 cells, Western blot for DISC1). Conditions: MG132 at various concentrations for 3 hours, FIG. 1.
Format: cell-based, human
Procedure: The proteasome inhibitor MG132 (N-carbobenzoxyl-Leu-Leu-Leucinal) (Sigma) was dissolved in DMSO to make a stock of 10 mM and stored at −20° C. HEK293 cells were treated with MG132 at various concentrations for 3 hours. The cells were then lysed in 3T3 lysis buffer (20 mM Hepes (pH 7.4), 50 mM NaCl, 50 mM NaF, 10% (v/v) glycerol, 1% (w/v) Triton X-100, 10 mM EGTA, 30 mM sodium pyrophosphate supplemented with protease and phosphatase inhibitor cocktail (Roche)). Proteins were quantified and normalised for protein concentration followed by Western blot analysis for DISC1 and GAPDH.
as §1
`CC(C)C[C@@H](C=O)NC(=O)[C@H](CC(C)C)NC(=O)[C@H](CC(C)C)NC(=O)OCc1ccccc1` [MG132, N-carbobenzoxyl-Leu-Leu-Leucinal] (Cbz-Leu-Leu-Leu-aldehyde) was tested, and the DISC1 levels was “up-regulates DISC1 levels”.

Each compound was assayed on FBXW7 substrates Notch-1, c-Myc, c-Jun and cyclinE (assay: Expression levels of other FBXW7 substrates after peptide treatment, Western blot). Conditions: FIG. 11, specificity for the FBXW7-DISC1 interaction.
Format: cell-based, human
Procedure: Lysates were boiled in Laemmli buffer for 2 minutes prior to SDS-PAGE. Lysates were loaded on to a precast 4-12% bis-tris gel (˜10 μg/well). Gels were resolved at 150V (constant) for 90 mins. Proteins were transferred to nitrocellulose membrane at 30V for 1 hour. Membranes were blocked in 5% Milk in 1×TBS-tween20 for 1 hour at room temperature. Primary antibodies were diluted in 1% milk in 1×TBS-tween20 and incubated overnight at 4° C. Membranes were washed three times with 1×TBS-tween20 and the appropriate secondary antibody (diluted using 1% milk in 1×TBS-tween20) was added for 45 mins at room temperature. Membranes were washed a further three times with 1×TBS-tween20 and once in 1×TBS. Protein bands were visulised using the Licor Odyssey scanner and analysed using Odyssey software (version 1.2). DISC-1 protein levels were analysed by densitometry and normalised against those of the loading control (GAPDH).
In the case of “G-mD-P-P-G-mE-H (G[NMeD]PPG[NMeE]H) [Peptide 142]”, the “effect on expression levels of the other FBXW7 substrates Notch-1, c-Myc, c-Jun and cyclinE” value is reported as “do not upregulate other FBXW7 substrates; also recorded: no effect”.
In the case of “G-mE-P-P-G-mE-H (G[NMeE]PPG[NMeE]H) [Peptide 139]”, the “effect on expression levels of the other FBXW7 substrates Notch-1, c-Myc, c-Jun and cyclinE” value is reported as “do not upregulate other FBXW7 substrates; also recorded: no effect”.

These compounds were tested against FBXW7 (Homo sapiens, UniProt Q969H0) (assay: Peptides immobilised on membranes screened for the ability to bind FBXW7). Conditions: not given.
Chain of FBXW7 (Q969H0 whole entry): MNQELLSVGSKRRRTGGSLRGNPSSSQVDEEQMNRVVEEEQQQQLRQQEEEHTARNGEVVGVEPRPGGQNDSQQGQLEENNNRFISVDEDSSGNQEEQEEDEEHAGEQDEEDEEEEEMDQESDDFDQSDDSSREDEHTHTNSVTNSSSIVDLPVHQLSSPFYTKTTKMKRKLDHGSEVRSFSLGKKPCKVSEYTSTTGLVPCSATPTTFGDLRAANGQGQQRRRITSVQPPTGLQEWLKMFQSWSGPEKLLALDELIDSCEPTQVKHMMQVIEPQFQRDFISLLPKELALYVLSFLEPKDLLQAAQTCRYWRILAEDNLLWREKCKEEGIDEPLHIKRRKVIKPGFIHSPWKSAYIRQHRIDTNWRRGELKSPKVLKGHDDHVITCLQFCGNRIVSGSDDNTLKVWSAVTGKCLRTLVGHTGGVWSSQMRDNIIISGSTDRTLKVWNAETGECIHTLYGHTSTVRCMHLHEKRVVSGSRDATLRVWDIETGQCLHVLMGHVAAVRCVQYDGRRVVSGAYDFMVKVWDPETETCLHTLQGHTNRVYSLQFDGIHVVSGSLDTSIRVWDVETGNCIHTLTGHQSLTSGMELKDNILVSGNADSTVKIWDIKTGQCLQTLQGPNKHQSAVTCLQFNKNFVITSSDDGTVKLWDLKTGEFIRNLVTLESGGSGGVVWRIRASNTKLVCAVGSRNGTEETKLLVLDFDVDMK
Format: binding
Source text: Peptides derived from DISC1 and containing the putative phospho-degron motif were immobilised on membranes and screened for the ability to bind FBXW7. […] (SEQ ID NO: 114).
The 7-mer peptide P-pT-P-P-G-pS-H (SEQ ID NO: 21) was used as the basis for further investigation. L- and D-forms of aspartic acid and glutamic acid (upper and lower case letters respectively) as well as N-methylated versions of each (designated “m”) were incorporated at positions 198 and 202.
“G-mD-P-P-G-mE-H (G[NMeD]PPG[NMeE]H) [Peptide 142]” was tested, and the “binding to FBXW7” value was “retain or have improved binding to FBXW7”.
For “G-mE-P-P-G-mE-H (G[NMeE]PPG[NMeE]H) [Peptide 139]”, the “binding to FBXW7” value was “retain or have improved binding to FBXW7”.
For “P-pT-P-P-G-pS-H [A185] (P[pT]PPG[pS]H) [Peptide A185]”, the “binding to FBXW7” value was “retain or have improved binding to FBXW7”.
In the case of “P-pT-P-P-G-pS-H [P-pT-P-P-G-pS-H] (P[pT]PPG[pS]H)”, the “binding to FBXW7” value is reported as “retain the ability to bind FBXW7”.
P-pT-P-P-G-pS-H-S (P[pT]PPG[pS]HS) was tested, and the “binding to FBXW7” value was “retain the ability to bind FBXW7”.
With “a-d-P-P-G-mE-h ([dA][dD]PPG[NMeE][dH]) [Peptide A164]” the “binding to FBXW7” value was “retain or have improved binding to FBXW7”.
In the case of “a-d-P-P-a-mE-H ([dA][dD]PP[dA][NMeE]H) [Peptide A166]”, the “binding to FBXW7” value is reported as “retain or have improved binding to FBXW7”.
“a-d-P-P-a-mE-h ([dA][dD]PP[dA][NMeE][dH]) [Peptide A165]” was tested, and the “binding to FBXW7” value was “retain or have improved binding to FBXW7”.
With “a-d-P-P-a-mE-k ([dA][dD]PP[dA][NMeE][dK]) [Peptide A197]” the “binding to FBXW7” value was “retain or have improved binding to FBXW7”.
“a-d-P-p-G-mE-H ([dA][dD]P[dP]G[NMeE]H) [Peptide A161]” was tested, and the “binding to FBXW7” value was “retain or have improved binding to FBXW7”.
In the case of “a-d-P-p-a-mE-h ([dA][dD]P[dP][dA][NMeE][dH]) [Peptide A168]”, the “binding to FBXW7” value is reported as “retain or have improved binding to FBXW7”.
With “a-d-p-P-G-mE-H ([dA][dD][dP]PG[NMeE]H) [Peptide A162]” the “binding to FBXW7” value was “retain or have improved binding to FBXW7”.
In the case of “a-d-p-p-G-mE-H ([dA][dD][dP][dP]G[NMeE]H) [Peptide A163]”, the “binding to FBXW7” value is reported as “retain or have improved binding to FBXW7”.
For “a-d-p-p-a-mE-h ([dA][dD][dP][dP][dA][NMeE][dH]) [Peptide A169]”, the “binding to FBXW7” value was “retain or have improved binding to FBXW7”.
In the case of “a-e-P-P-G-mE-H ([dA][dE]PPG[NMeE]H) [Peptide A130]”, the “binding to FBXW7” value is reported as “retain or have improved binding to FBXW7”.
For “a-mD-P-P-G-mE-H ([dA][NMeD]PPG[NMeE]H) [Peptide A51]”, the “binding to FBXW7” value was “retain or have improved binding to FBXW7”.
In the case of “a-mE-P-P-G-mE-H ([dA][NMeE]PPG[NMeE]H) [Peptide A71]”, the “binding to FBXW7” value is reported as “retain or have improved binding to FBXW7”.
“d-P-P-G-mE-H ([dD]PPG[NMeE]H) [Peptide A86]” was tested, and the “binding to FBXW7” value was “retain or have improved binding to FBXW7”.
With “e-P-P-G-mE-H ([dE]PPG[NMeE]H) [Peptide A26]” the “binding to FBXW7” value was “retain or have improved binding to FBXW7”.
In the case of “l-d-P-P-G-mE-H ([dL][dD]PPG[NMeE]H) [Peptide A99]”, the “binding to FBXW7” value is reported as “retain or have improved binding to FBXW7”.
“l-e-P-P-G-mE-H ([dL][dE]PPG[NMeE]H) [Peptide A138]” was tested, and the “binding to FBXW7” value was “retain or have improved binding to FBXW7”.
For “l-mE-P-P-G-mE-H ([dL][NMeE]PPG[NMeE]H) [Peptide A79]”, the “binding to FBXW7” value was “retain or have improved binding to FBXW7”.
“p-d-P-P-G-mE-H ([dP][dD]PPG[NMeE]H) [Peptide A181]” was tested, and the “binding to FBXW7” value was “retain or have improved binding to FBXW7”.
In the case of “p-d-P-P-G-mE-h ([dP][dD]PPG[NMeE][dH]) [Peptide A184]”, the “binding to FBXW7” value is reported as “retain or have improved binding to FBXW7”.

These compounds were tested against T1, Skp1-FBXW7 (Homo sapiens, UniProt Q969H0) (assay: Isothermal titration calorimetry (ITC)). Conditions: ITC at 25° C.
T1 construct: human FBXW7 (residues 263-707); His6 (N, cleaved yes); made in house; host or cells: Escherichia coli
T1 sequence (Q969H0 263-707): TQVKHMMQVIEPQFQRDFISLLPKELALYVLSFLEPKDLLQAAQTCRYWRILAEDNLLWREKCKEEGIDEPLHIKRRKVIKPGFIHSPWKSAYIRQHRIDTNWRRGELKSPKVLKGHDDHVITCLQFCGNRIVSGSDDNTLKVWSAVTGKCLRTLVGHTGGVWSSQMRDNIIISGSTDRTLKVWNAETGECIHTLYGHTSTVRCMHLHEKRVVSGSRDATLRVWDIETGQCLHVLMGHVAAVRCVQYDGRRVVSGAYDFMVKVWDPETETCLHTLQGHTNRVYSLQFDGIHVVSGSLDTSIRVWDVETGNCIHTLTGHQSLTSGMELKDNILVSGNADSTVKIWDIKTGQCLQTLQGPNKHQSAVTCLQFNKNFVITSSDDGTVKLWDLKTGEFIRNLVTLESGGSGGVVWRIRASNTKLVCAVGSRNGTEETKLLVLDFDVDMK
Format: binding
Procedure: Affinity of DISC1 analogue peptides (or other binding inhibitors) for FBXW7 may be determined using ITC.
Protein samples are typically dialysed against a solution containing 20 mM HEPES-Na (pH 7.4), 200 mM NaCl, and 2 mM β-mercaptoethanol before combining. Typically, the concentrations of Skp1-FBXW7 and DISC1 peptides used in the assay are 50 μM and 1 mM, respectively.
Titration is performed at 25° C. with a NANO ITC System (TA Instruments, New Castle, Del.) and data analysed using the TA Nano Analyze software. Dissociation constants and their standard deviations are typically derived from two to three independent measurements.
In the case of `CC(C)[C@H](N)C(=O)N1CCC[C@H]1C(=O)N1CCC[C@H]1C(=O)N[C@H](C(=O)N1CCC[C@H]1C(=O)N1CCC[C@H]1C(=O)NCC(=O)N[C@@H](COP(=O)(O)O)C(=O)N[C@@H](Cc1c[nH]cn1)C(=O)O)[C@@H](C)OP(=O)(O)O` [VPPpTPPGpSH] (H-VPP[pT]PPG[pS]H-OH; N-terminus and C-terminus assumed), the Kd is reported as about 1000 nM.
